Experimental data taken from US20090214495A1 (published 2009).

Molecular target: T1, VEGFR-3 expressed in primary human osteoblasts (human, UniProt P35916 25-1363)
T1 construct: whole, on cells; Endogenous receptor of the cells; also called vascular endothelial growth factor receptor-3
Test: receptor auto-phosphorylation in primary human osteoblasts treated with 25 ng/ml VEGF-D
Procedure: Moreover osteoblasts were treated with VEGF-D and the whole cell lisates were immunoprecipitated with an antibody recognizing VEGFR-3 C-terminus (Santa Cruz Biotechnology) and immunoblotted with anti-phosphotyrosine antibodies (Santa Cruz Biotechnology).
Cells were stimulated for 30 min with 25 ng/ml VEGF-D at 37° C., washed with ice-cold PBS containing 0.1 mM Na₃VO₄, and lysed in 1 ml of lysis buffer (50 mM Hepes, pH 7.4, 150 mM NaCl, 1% Triton-X 100, 1.5 mM MgCl₂, 1 mM EGTA, 10 mM NaH₂PO₄, 100 mM NaF, 10 mM DTT, 1 mM Na₃VO₄, protease inhibitors, Sigma Chemical). Cells lysates were incubated on ice for 10 min, centrifuged at 10,000×g for 15 min, and the supernatants were incubated with anti-VEGFR-3 antibodies.

T1 sequence (P35916 25-1363): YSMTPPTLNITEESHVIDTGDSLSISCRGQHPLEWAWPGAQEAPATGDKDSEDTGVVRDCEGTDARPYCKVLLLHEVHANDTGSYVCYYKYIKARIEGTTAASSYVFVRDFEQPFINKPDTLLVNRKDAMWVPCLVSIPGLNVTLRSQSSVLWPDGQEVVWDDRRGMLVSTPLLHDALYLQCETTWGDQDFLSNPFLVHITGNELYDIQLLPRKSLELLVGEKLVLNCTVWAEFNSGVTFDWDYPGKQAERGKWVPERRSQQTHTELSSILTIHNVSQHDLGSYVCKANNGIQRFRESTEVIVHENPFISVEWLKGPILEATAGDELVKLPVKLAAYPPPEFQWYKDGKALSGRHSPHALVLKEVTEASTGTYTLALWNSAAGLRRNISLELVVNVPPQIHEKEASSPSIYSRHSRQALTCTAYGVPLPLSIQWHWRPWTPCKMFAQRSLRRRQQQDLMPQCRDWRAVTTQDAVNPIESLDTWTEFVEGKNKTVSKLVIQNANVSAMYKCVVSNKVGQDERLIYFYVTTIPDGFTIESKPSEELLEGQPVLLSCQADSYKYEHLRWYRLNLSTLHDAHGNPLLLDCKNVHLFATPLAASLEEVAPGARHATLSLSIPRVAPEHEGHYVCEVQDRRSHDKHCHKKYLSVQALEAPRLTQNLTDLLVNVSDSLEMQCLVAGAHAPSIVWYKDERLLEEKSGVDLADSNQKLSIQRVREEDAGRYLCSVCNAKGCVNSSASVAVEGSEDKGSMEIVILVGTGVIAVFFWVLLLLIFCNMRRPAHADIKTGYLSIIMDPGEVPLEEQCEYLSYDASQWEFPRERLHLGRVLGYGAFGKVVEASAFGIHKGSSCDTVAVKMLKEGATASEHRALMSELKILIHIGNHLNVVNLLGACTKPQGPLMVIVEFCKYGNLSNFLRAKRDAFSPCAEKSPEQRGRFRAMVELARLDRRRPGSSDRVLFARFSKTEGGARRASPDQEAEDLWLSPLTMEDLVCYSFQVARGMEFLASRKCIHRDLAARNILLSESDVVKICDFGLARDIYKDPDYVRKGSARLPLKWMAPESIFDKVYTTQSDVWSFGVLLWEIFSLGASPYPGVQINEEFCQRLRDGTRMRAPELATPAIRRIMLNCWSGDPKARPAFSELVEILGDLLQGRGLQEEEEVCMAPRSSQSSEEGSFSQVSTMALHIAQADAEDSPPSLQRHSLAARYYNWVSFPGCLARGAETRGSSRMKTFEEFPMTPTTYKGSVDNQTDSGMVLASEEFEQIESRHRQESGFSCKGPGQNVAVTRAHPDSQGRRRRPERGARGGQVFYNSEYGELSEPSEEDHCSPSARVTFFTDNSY

- binding result: binds
B1: recombinant human VEGF-D fragment (amino acids 90 to 203), non covalent dimer, expressed in E. coli (ligand, UniProt O43915 90-203, looked up)
chain: AATFYDIETLKVIDEEWQRTQCSPRETCVEVASELGKSTNTFFKPPCVNVFRCGGCCNEESLICMNTSTSYISKQLFEISVPLTSVPELVPVKVANHTGCKCLPTAPRHPYSII
notes: range 90-203; this protein was used for the osteoblast experiments; also called recombinant VEGF-D; VEGF-D fragment comprising aa 93-203; not shown: tag from vector pET-22b used for Ni2+ IMAC / His-TRAP purification
